According to the nanobody polyreactivity screen of Harvey et al. (2022):

test: yeast display, Sf9 membrane polyspecificity reagent, FACS + sequencing; frameworks hold sequencing errors
Summary of the method: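 Genes from sorted yeast were amplified by colony PCR, read by MiSeq 2 × 250 sequencing and filtered on CDR length. These cells carried a synthetic nanobody library in Saccharomyces cerevisiae BJ5465 and were sorted by FACS into low and high (top ~1%) gates on anti-HA and streptavidin fluorescence. Polyreactivity is labelled according to the gate of origin.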

| Sequence | polyreactivity (PSR sort gate) |
| --- | --- |
| QVQLVESGGGLVQAGGSLRLSWAASGSKSCADVMGWYRPEPGKERELLAAISSGTSTYYADSVKGRFTISRDNAKNTVYLQMNSLKPEDTGVYYCAAYYYSYPTNGGYGYCGQGTQVTVSS | low polyreactivity |
| QVQLVESGGGLVQAGGSLRLSCAASGRTFQYNAMGWYRLAPGKERELVAAISSGGSTYYADSVKGRFSISRDNAKNTVYLQMNSLKPEDTAVYYCATYLAEYGYWGQGTQVTVSS | high polyreactivity |
| QVQLVESGGGLVQAGGSLRLSCAASGFILERYAMGWYRQAPGKERELVAAISSVGNTNYADSVKGRFTISRDNAKNTVYFQMNSLKPEDTAVYYCAAEGAFPIYDYWGQGTQVTVSS | low polyreactivity |
| QVQIVESGGGLVQAGGSLRLSCAASGFIFRYNVMGWYRQAPAKERELVAANSSSGSRTYYADSVKGRFTISRDNAKNTVYLQMNSLKPEDTAVYYCATQSWVRYGQPEFDYWGHGTQVTVSS | high polyreactivity |
| QVQLVESGGGLVQAGGSLRLSCAASGFTFYNYAMGWYRQAPGKERELVAAISWSGGSTHYADSVKGRFTISRDNAKNTVYLQMNSLKPEDTAVYYCAKFGVLGYYTYYYWGQGTQVTVSS | low polyreactivity |
| QVQLVESGGGLVQAGGSLRLSCAASGITFTGYSMGWYRQAPGKERELVAVISEKGGSTYADSVKGRFTISRDNAKNTVYLQMNSLKPEDTAVYYCAARLWWPYSTAWAKMDYWGQGTQVTVSS | low polyreactivity |
| QVQLEESGGGLVQAGGSLRLSCAASGRIFSRYAMGGYRQAPGKERELVAAITQSGTSTYYADSVKGRFTISRDNAKNTVYLQMNSLKPEDTAVYYCNAYRQYRYDYWGQGTQVTVSS | low polyreactivity |
| QVQLVESGGGLVQAGGSLRLSCADSGRTFYINAMGWYRQAPGKERELVAAISSSGGITYYADSVKGRFTISRENAKNTVYLQMNSLKPEDTAVYYCNAPYVYSWHYDYWGQGTQVTVSS | low polyreactivity |
| QVHLVESGGGLVQAGGSLRISCAASGSTFVYYAMGWYRQAPGTERELVAAISVSGDSTYYADSVKGRFTISRDNAKNTVYLQMNSLKPEDTAVYYCATEVYWTVSYYGYDYYGGNYYYWGQGTQVTVSS | low polyreactivity |
| QVQLVESGGGLVQAGGSLRLSCAASGITFSRNAMGWYRQAPGKERELVATITSGGSTNYADSVKGRFTISRDNAKNTVYLQMNSLKPEDTAGYYCNAVWNTFISGRSYDYWGQGTQVTVSS | low polyreactivity |
| QDQLVESGGGLLQAGGSLRLSCAASGYTFPIYAMGWYRQAPGKERELVAGISKNGGSTYYADSVKGRFTISRDNAKNTVYLQMNSLKPEDTEVYYCNASAWGRPYYRGSYFVFPGYEYWGQGTQVTVSS | low polyreactivity |
| QVQLVESGGGLVQAGGSLRLSCAASGSTFVENAMGWYRQAPGKERELVAAISSSGDSTFYADSVKGRFTISRDNAKNTVYLKMNSLKPEDTAVYYCAADRRINYDGLDMDYWGQGTQVTVSS | low polyreactivity |
| QVQLVESGGGLVQAGGSLRLSCAASGSTLPVYAMGWYRQAPGKERELVATITDTGITNYADSVKGRFTLSRDNAKNTVYLQMNSLKPEDTAVYYCAVDSTGVWPYQVGYAPYDYWGQGTQVTVSS | low polyreactivity |
| QVQLVESGGGLVQAGGSLRLSCAASGSTFGKYVMGWYRQAPGKERELVAAISRSGGSTYYADYVKGRFTISRDNAMNTVYLQMNSLKPEDTAVYYCNAVVYFVGDFDYWGQGTQVSVSS | high polyreactivity |
| QVQLVESGGGLVQAGGSLRLSCAASGLIFRSNAMGWYRQAPGKERELVAAISGSGGRTYYADSVKGRFTISRDNANNTVYLQMNSLKPEDTAVYYCAGRWSYRQNGYWGQGTQVTVSS | high polyreactivity |
| QVQLVESGGGLVQAGGSLRLSCAASGITFYTNAMGWYRQAPGKERELVAAISSGDSTNYADSVKGRFTISRDNAKNTVYLQMNSLKPEDTAVYYCAKEATQLVWIGMDYWGQGTQVTVSS | low polyreactivity |
| QVQLVESGGGLVHAGGSLRLSCAASGFIFKFYAMGWYRQAPGKERELVAAISKSGGRTYYADSVKGRFTISRDNAKNTVYLQMNSLKPEDTAVYYCNAPSVGAAFDYWGQGTQVTVSS | high polyreactivity |
| QVQLVESGGGLVQAGGSLRLSCAASGRIFYKYAMGWYRQAPGKERELVAAISYSGGSTYYADSVKGRFTISRDNAKNTVYLQMKSLKPEDTAVYYCNAKPPYGVRSWGDYWGQGTQVTVSS | low polyreactivity |
| QVQRVESGGGLFQAGGSLRLSCAASGSTFGYYAMGWYRQAPGKERELVPAISGSGTSTNYADSVKGRITISRDNAKNTVYLQMNSLKPEDTAVYYCATRYRYTGGGYYYRGQGTQVTVSS | low polyreactivity |
| QVQLVESVGGLVQAGGSLRLSCAASGFTFSPNARGSYRQAPGKERELVAAIDWSGDRTYYADSVKGRFTISRDNAKNTVYLQMNILKPEDTAVYYCKVVRRSPGDYSYYYWGQGTQVTVSS | low polyreactivity |
| QVQLVESGGGLVQAGGSLRLSCAASGRIFWFYTMGWYRQAPGKERELVARITTSGGSTYYADSVKGRFTISRDNAKNTVYLQMNSLKPEDTAVYYCAARPRDYHSFSLDYYYWGQGTQVTVSS | high polyreactivity |
| QVQLVESGGGLVLAGGSLRLSCAASGRTFRYYTMGWFRPAPGKEREFVAAISSTGGTYYADSVKGRFTISRDNAKNTVYLQMNSLNPEDTAVYYCAATFIQVVVNVQLYDYDYWGQGTQVTVSS | low polyreactivity |
| QVQLVESGGGLVQAGGSLRLSCAASGSTFVWYAMGWYRQEPGKERELVAAINFGGTTYYADSVNGRFTISRDNAKNTVYLQMNSLKTEDTAVYYCATEYDYGSWYPDGWGIFDYWGQGTQVTVSS | low polyreactivity |
| QVQLVESGGGLVQAGRSLRLSCAASGSTFSVNAMGWYRQAPGKERELVAAIPSGGNTYADSVKGRFTISRDNAKNTVYLQMNSLKPEDTAVYYCAVDNRDLFFYPGGFDYWGQGTQVTVSS | low polyreactivity |
| QVQLVESGGGLVQAGGSLRLSCAASGRIFPVNAMGWYRQATGKERELVARISWRGGTYYADSVKGRFTISRDNAKNTVYLQMNSLKPEDTAVYYCAATLPSTSYWYQYGYWGQGTQVTVSS | high polyreactivity |
| QVQLVESGGGLVQAGGSLRLSCAASGRTFYLYTMGWYRQAPGKVSELVATISDGGGGTYYADSVKGRFTISRDNAKNTVYLQMNRLKPEDTAVYYCSADPIDVRDVPIPHVDFDYWGQGTQVTVSS | low polyreactivity |
| QVQLVESGGGLVQAGGSLRLSCAASGGIFSYNAMGSYRQAPGKERELVATISYSGGSTFYADSVKGRFTISRDNAKNTVYLQMNSLKPEDTAVYYCARPSYTSGYQSYDYWGQGTQVTVSS | low polyreactivity |
| QVQLVESGGGLVQAGGSLRLSCAASGITFDGYAMGWDRQAPGKERELVAVISWSAGSTYADSVKGRFTISRDNAKNTVYLQMNSLKPEDTAVYYGNARTTYRSSRYRRYEYWGQGTQVTVSS | high polyreactivity |
| QVQLVESGGGLVQAGGSLRLSCAASGRIFGYYAMGWYRQAPGKERELVASIRRGTRTNYADSVKGRFTISRDNAKNTVYLQMNSLKPEDTAVYYCAATRFQFTTTPWYDYWGQGTQVTVSS | high polyreactivity |
| QVQLVESGGGLVQAGGSLRLSCAASGRTSYWYAMGWYRQAPGKERELVAVISSGGSTYYADSVKGRFTISRDNAKNTVYLQMNSLKPEDTAVYYCNAVVGRWFPYNLSDYWGQGTQVTVSS | low polyreactivity |
